Reference: patent publication US20230312724A1 (KADMON, published 2023)

T1: mB7-H4 (soluble mouse B7-H4, construct not named) (mouse, UniProt Q7TSP5 25-257, limits assumed)
T1 sequence: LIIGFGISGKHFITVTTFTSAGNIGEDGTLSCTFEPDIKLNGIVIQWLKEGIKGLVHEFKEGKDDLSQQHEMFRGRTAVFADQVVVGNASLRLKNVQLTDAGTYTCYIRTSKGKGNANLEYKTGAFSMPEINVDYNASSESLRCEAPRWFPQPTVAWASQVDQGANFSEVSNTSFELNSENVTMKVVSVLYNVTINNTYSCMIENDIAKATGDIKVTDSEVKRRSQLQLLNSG

T2: mouse B7-H4-his (mouse, UniProt Q7TSP5 25-257)
T2 construct: also called mB7-H4-his; mB7-H4-His; not shown: his tag
T2 sequence: T1 sequence

T3: human B7-H4-his (human, UniProt Q7Z7D3 25-259)
T3 construct: also called hB7-H4-his; hB7-H4 his; not shown: his tag
T3 sequence: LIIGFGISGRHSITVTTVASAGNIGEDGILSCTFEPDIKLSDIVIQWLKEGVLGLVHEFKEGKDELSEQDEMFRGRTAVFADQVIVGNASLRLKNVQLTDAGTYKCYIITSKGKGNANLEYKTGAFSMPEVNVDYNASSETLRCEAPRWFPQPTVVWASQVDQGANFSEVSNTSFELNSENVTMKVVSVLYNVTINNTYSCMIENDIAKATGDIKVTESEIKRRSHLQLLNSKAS

T4: mouse B7-H4 expressed on cells (mouse, UniProt Q7TSP5 25-257)
T4 construct: also called cellular mB7-H4; mB7-H4/CT26
T4 sequence: T1 sequence

T5: human B7-H4 expressed on cells (human, UniProt Q7Z7D3 25-282)
T5 construct: Transfected CHO cells or tumor cell lines that carry hB7-H4; also called cellular hB7-H4
T5 sequence: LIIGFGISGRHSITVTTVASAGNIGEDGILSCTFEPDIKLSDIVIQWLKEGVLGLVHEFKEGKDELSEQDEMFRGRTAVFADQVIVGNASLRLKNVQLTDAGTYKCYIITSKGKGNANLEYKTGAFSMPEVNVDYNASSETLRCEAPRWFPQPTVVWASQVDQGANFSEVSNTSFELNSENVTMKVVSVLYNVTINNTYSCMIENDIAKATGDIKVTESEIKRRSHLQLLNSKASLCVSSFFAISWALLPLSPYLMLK

T6: hB7-H4 (soluble human B7-H4, construct not named) (human, UniProt Q7Z7D3 25-259, limits assumed)
T6 construct: also called soluble hB7-H4
T6 sequence: T3 sequence

B1: 4B9/4B9 (antibody, human IgG1, V domains shown)
VH: QVQLVQSGAEVKKPGASVKVSCKASGYTFTSYYMHWVRQAPGQGLEWMGWMNPNSGNTGYAQKFQGRVTMTRDTSTSTVYMELSSLRSEDTAVYYCARGQGRYLNYYYMDVWGKGTTVTVSS
VL: DIQMTQSPSSLSASVGDRVTITCRVSQGISNYLAWYQQKPGKAPKLLIYDASSLQSGVPSRFSGSGSGTDFTLTISSLQPEDFATYYCQQSYSTPFTFGPGTKVDIK
B2: 39A11/39A11 (antibody, human IgG1, V domains shown)
VH: EVQLLESGGGLVQPGGSLRLSCAASGFTFSSYGMHWVRQAPGKGLEWVASISSSSGYIYYADSVKGRFTISRDNSKNTLYLQMNSLRAEDTAVYYCARASSGMDVWGQGTTVTVSS
VL: DIQMTQSPSSLSASVGDRVTITCRASQTIRSYLNWYQQKPGKAPKLLIYAASHLQSGVPSRFSGSGSGTDFTLTISSLQPEDFATYYCQQSYTTPYTFGQGTKLEIK

Key:
[1] = target: T7, IgV domain of human B7-H4-Fc (human); experiment: ELISA, coated hB7-H4 IgV domain
T7 construct: also called hB7-H4 IgV domain
Protocol: (§1) About 1-2 μg/ml of human or mouse B7-H4-Fc (or his-tagged) was immobilized on ELISA plates (Immuno 2HB, Thermo scientific, cat #3455) at 4° C. overnight. After blocking the plates with 3% PBS+milk, serial diluted antibodies were added to the blocked plates and incubated at RT for 1-1.5 h. After washing the plates with PBS-T (0.05%), horse radish peroxidase (HRP)-conjugated antibody targeting the hFab was added to the plate. Signals were developed by adding 3,3′,5,5′-Tetramethylbenzidine (TMB (followed 1N of H₂SO₄ to stop the reaction. The OD at 450 nm was read by ELISA plate reader (Infinite M1000 from TECAN). GraphPad from Prism was used to plot OD450 vs. antibody concentration curve and to calculate the EC50 values.

[2] = target: T1, mB7-H4 (soluble mouse B7-H4, construct …); experiment: summary of ELISA and flow cytometry
[3] = target: T8, human B7-H4-Fc (human); experiment: SPR (Biacore)
T8 construct: also called hB7-H4-Fc; hB7-H4 Fc

[4] = target: T2, mouse B7-H4-his; experiment: SPR (Biacore)
[5] = target: T3, human B7-H4-his; experiment: SPR (Biacore)
[6] = target: T8, human B7-H4-Fc; experiment: ELISA, coated hB7-H4-Fc
Protocol: as §1

[7] = target: T9, mouse B7-H4-Fc (mouse; human); experiment: ELISA, coated mB7-H4-Fc
T9 construct: also called mB7-H4-Fc; mB7-H4-hFc
Method in brief: (§2)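 Following overnight 4° C coating with about 1-2 μg/ml B7-H4-Fc or his-tagged protein and 3% PBS+milk blocking, antibody dilution series bind 1-1.5 h at RT. HRP anti-hFab plus TMB yields OD450, from which EC50 is derived.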

[8] = target: T4, mouse B7-H4 expressed on cells; experiment: flow cytometry, CHO cells expressing mB7-H4
[9] = target: T10, IgV domain of mouse B7-H4-Fc (mouse; human); experiment: ELISA, coated mB7-H4 IgV domain
T10 construct: also called mB7-H4 IgV domain
Method in brief: as §2

[10] = target: T5, human B7-H4 expressed on cells; experiment: flow cytometry, SK-BR-3 cells
Method in brief: (§3)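 Binding read on a Guava flow cytometer after two-step staining at 4 °C: serial dilutions of antibody or fusion protein for 1 h, then 1:200 secondary antibody for 30 min in the dark. Cells suspended at 1×10⁶ cells/ml in cold FACS buffer, washed three times between steps.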

[11] = target: T10, IgV domain of mouse B7-H4-Fc; experiment: ELISA, coated mB7-H4 IgV domain; remark: listed apart in the source
[12] = target: T7, IgV domain of human B7-H4-Fc; experiment: ELISA, coated hB7-H4 IgV domain; remark: listed apart in the source
[13] = target: T6, hB7-H4 (soluble human B7-H4, construct …); experiment: ELISA, hB7-H4
Method in brief: as §2

[14] = target: T11, IgC domain of human B7-H4-Fc (human); experiment: ELISA, coated hB7-H4 IgC domain
T11 construct: also called hB7-H4 IgC domain
Protocol: as §1

[15] = target: T12, IgC domain of mouse B7-H4-Fc (mouse; human); experiment: ELISA, coated mB7-H4 IgC domain
T12 construct: also called mB7-H4 IgC domain
Protocol: as §1

[16] = target: T1, mB7-H4 (soluble mouse B7-H4, construct …); experiment: SPR (Biacore)
Method in brief: (§4)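 Kinetic constants came from a 1:1 Langmuir fit of binding at 25 °C in HBS-EP, pH 7.4. Analyte (100 nM to 0.1 nM) flowed for 180 s, then dissociated for 1000 or 1200 s, over amine-coupled human B7-H4-Fc, human B7-H4-his or mouse B7-H4-Fc surfaces at 50-100 RU.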

[17] = target: T6, hB7-H4 (soluble human B7-H4, construct …); experiment: SPR (Biacore)
Method in brief: as §4

[18] = target: T1, mB7-H4 (soluble mouse B7-H4, construct …); experiment: ELISA, mB7-H4
Method in brief: as §2

[19] = target: T9, mouse B7-H4-Fc; experiment: SPR (Biacore)
[20] = target: T4, mouse B7-H4 expressed on cells; experiment: flow cytometry, mB7-H4/CT26 cells
Method in brief: as §3

T8 sequence (chain, as listed by the source): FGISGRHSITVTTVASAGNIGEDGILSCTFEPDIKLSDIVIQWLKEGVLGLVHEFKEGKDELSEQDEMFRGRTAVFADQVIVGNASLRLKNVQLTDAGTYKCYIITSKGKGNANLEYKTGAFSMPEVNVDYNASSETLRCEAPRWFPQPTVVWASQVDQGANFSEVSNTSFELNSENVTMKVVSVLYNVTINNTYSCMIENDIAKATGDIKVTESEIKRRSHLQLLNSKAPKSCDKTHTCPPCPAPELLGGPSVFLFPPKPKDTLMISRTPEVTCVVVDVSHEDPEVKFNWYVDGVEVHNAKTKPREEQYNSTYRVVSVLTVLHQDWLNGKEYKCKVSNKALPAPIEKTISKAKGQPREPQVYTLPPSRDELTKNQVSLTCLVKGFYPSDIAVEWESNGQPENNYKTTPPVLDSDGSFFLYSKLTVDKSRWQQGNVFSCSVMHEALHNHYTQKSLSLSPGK
T10 sequence (chain, as listed by the source): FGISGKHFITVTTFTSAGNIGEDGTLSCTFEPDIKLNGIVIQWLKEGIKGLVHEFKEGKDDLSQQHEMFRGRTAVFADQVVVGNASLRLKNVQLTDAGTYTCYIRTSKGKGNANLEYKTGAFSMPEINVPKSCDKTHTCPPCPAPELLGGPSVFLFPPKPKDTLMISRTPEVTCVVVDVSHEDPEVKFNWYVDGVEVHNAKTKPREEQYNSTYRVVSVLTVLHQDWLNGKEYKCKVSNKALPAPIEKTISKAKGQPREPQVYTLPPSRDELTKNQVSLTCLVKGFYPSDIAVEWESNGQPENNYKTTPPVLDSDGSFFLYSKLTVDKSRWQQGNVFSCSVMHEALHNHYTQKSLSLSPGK
T9 sequence (chain, as listed by the source): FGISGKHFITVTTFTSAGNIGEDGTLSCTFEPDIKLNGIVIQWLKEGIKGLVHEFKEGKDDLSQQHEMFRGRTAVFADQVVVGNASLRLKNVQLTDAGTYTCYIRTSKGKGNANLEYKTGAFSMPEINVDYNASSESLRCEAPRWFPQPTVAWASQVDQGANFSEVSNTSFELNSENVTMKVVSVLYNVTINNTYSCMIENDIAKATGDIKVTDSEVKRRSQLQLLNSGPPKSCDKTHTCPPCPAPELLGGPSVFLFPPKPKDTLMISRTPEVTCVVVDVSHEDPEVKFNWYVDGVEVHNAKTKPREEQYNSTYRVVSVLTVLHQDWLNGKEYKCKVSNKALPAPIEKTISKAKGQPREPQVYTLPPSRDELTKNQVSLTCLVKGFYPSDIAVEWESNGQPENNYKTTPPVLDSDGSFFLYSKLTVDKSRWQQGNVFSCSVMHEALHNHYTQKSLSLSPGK
T7 sequence (chain, as listed by the source): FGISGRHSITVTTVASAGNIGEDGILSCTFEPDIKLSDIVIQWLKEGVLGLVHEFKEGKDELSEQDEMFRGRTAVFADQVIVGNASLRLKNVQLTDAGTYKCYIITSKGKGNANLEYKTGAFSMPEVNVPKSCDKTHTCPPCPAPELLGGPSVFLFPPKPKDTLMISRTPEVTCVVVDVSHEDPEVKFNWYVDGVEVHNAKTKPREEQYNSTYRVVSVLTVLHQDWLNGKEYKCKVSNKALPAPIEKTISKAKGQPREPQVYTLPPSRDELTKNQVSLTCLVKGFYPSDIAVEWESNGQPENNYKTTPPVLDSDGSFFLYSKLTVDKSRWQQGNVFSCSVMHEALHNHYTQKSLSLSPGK
T11 sequence (chain, as listed by the source): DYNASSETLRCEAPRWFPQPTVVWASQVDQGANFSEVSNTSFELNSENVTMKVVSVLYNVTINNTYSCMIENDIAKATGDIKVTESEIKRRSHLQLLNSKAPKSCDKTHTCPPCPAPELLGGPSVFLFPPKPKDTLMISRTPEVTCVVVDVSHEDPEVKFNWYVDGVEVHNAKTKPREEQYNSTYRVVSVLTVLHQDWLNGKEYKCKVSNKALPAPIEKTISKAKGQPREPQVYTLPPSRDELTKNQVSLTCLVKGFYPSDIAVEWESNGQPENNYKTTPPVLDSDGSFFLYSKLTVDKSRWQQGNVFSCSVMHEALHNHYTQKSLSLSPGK
T12 sequence (chain, as listed by the source): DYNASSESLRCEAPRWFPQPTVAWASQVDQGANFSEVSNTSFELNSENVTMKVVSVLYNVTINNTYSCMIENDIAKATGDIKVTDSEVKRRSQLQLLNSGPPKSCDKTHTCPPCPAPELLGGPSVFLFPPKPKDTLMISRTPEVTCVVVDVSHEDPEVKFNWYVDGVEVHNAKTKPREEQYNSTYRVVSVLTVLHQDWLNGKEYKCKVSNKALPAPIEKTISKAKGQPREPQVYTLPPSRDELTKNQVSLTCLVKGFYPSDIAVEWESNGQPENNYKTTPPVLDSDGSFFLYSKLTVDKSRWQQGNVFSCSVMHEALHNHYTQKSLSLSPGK

| Binder | binding result [1] | binding result [2] | Kd [3] | binding result [4] | Kd [5] | EC50 (read off the curve) [6] | binding result [7] | binding result [8] | binding result [9] | EC50 [10] | EC50 (read off the curve) [11] | EC50 (read off the curve) [12] | EC50 [13] | binding result [14] | binding result [15] | Kd [16] | Kd [17] | EC50 [18] | Kd [19] | EC50 [20] |
| --- | --- | --- | --- | --- | --- | --- | --- | --- | --- | --- | --- | --- | --- | --- | --- | --- | --- | --- | --- | --- |
| B1 | no binding (tested: 20 nM) | no binding | 2.89 nM | no binding | 4.13 nM | ~0.07 nM | no binding (tested: 20 nM) | no binding | no binding (tested: 20 nM) | – | – | – | – | – | – | – | – | – | – | – |
| B2 | – | – | 0.926 nM | – | – | – | – | – | – | 4.17 nM | ~0.2 nM | ~0.3 nM | 0.08 nM | no binding (tested: axis value -8 (labelled log nM)) | no binding (tested: axis value -8 (labelled log nM)) | 13 nM | 1.05 nM | 0.136 nM | 1.53 nM | 6.73 nM |
